Laboratory results: paper PMC4022651, “Substitutional Analysis of the C-Terminal Domain of AbrB Revealed Its Essential Role in DNA-Binding Activity”

Experiments:
[1] = target: AbrB Q91A (B. subtilis); assay: SEC; analytical gel filtration (FPLC) on Superdex 75 5/150 GL; running buffer condition II: 50 mM HEPES pH 7.5, 300 mM NaCl, 2 mM β-mercaptoethanol with 10% glycerol; 60 µl (100 µg) protein applied; 0.2 ml/min; polymeric forms as % of the areas under the curve of all protein peaks
[2] = target: AbrB Q91A (B. subtilis); assay: SEC; analytical gel filtration (FPLC) on Superdex 75 5/150 GL; running buffer condition I: 50 mM HEPES pH 7.5, 300 mM NaCl, 2 mM β-mercaptoethanol, no glycerol; 100 µl protein applied; 0.2 ml/min; polymeric forms as % of the areas under the curve of all protein peaks
[3] = target: T1, AbrB wt (Bacillus subtilis 168, UniProt P08874 3-96); assay: EMSA; details: apparent KD', from plot against AbrB tetramer; 20 mM Tris-HCl pH 8, 100 mM KCl, 5 mM MgCl2, 1 mM DTT, 10% glycerol, 0.1 mg/ml poly(dI-dC), room temperature, 20 min; 1.14 nM phyC or 0.95 nM sinIR DNA
T1 sequence: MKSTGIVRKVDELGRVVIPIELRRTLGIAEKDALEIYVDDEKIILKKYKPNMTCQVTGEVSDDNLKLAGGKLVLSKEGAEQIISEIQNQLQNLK

[4] = tested on: AbrB R15A (Bacillus subtilis 168); assay: EMSA; details: apparent KD', from plot against AbrB tetramer; 20 mM Tris-HCl pH 8, 100 mM KCl, 5 mM MgCl2, 1 mM DTT, 10% glycerol, 0.1 mg/ml poly(dI-dC), room temperature, 20 min; 1.14 nM phyC or 0.95 nM sinIR DNA
[5] = target: T1, AbrB wt; assay: EMSA; shift above 0.1 uM, no super shift; 20 mM Tris-HCl pH 8, 100 mM KCl, 5 mM MgCl2, 1 mM DTT, 10% glycerol, 0.1 mg/ml poly(dI-dC), room temperature, 20 min; 1.14 nM phyC or 0.95 nM sinIR DNA; details: protein: recombinant; tags: His6; chain copies: 4; label: 5'-32P; blunt

AbrB Q91A (natural protein)
% of the protein (AUC) in the form with n 4.1 [1]: > 95% | stoichiometry N [1]: 4.1 | % of the protein (AUC) in the form with n 4.7 [2]: 85% | % of the protein (AUC) in the form with n 8.2 [2]: 15%

phyC promoter 440 bp
Kd [3]: 0.66 µM | Kd [4]: 3.4 µM

B1: sinIR P1 AbrB site 36 bp (dsDNA)
DNA 1: GTGATTTAATGGCAAATGACTTCCAGAGACTAATGA
DNA 2: TCATTAGTCTCTGGAAGTCATTTGCCATTAAATCAC
binding result [5]: binds
